Experimental data taken from article PMC5365251, “Biophysical assay for tethered signaling reactions reveals tether-controlled activity for the phosphatase SHP-1” (Science Advances, 2017).

Tested on: PEG12-ITIM peptide
Assay: Solution phosphatase assay (inorganic phosphate release)
Assay type: biochemical, mouse
Details: PEG12-ITIM 10 μM, pH 7.4, 10°C, BIOMOL Green; fit of progress curves
Procedure: Purified SHP-1 was mixed with PEG12-ITIM peptide at 10 μM, in 10 mM Hepes (pH 7.4), 150 mM NaCl, 3 mM EDTA, 0.005% Surfactant P20, and 1 mM dithiothreitol (Sigma). Temperature was regulated to 10°C with a thermocycler heat block, and the production of inorganic phosphate was measured at the indicated time points using BIOMOL Green (Enzo Life Sciences).
The resulting progress curves (Fig. 1B) were fit using a standard mathematical model ([20]) based on the following reaction scheme F+S^*⇌koffkonCkcat⇀F+S where F is the phosphatase, S* is the phosphorylated peptide substrate, S is the unphosphorylated peptide product, and C is the intermediate enzyme-substrate complex. This reaction scheme corresponds to the following coupled ODEs ∂F/∂t=−konFS*+(koff+kcat)C∂S*/∂t=−konFS*+koffC∂C/∂t=konFS*−(koff+kcat)C∂S/∂t=kcatC with the following conservation equations for the enzyme and substrate, FT=E+CST=S*+C+S where FT is the initial SHP-1 concentration and ST is the initial concentration of phosphorylated substrate. A common assumption for in vitro solution-based enzyme assays is that the enzyme-substrate complex (C) changes on a […] time scale compared to the time scale of product formation (that is, ∂C/∂t ≈ 0). Using this quasi–steady-state approximation, which is valid when E ≪ S + Km ([46], [47]), we find C = FTS^∗/(Km + S^∗). […] The initial condition is S(t = 0) = 0. […]

SHP-1: murine SHP-1 tyrosine phosphatase with an N-terminal 6× His tag, expressed in E. coli
k*cat (= kcat/Km), overall catalytic rate in solution: 6800 M⁻¹ s⁻¹
